Results: patent US20260209387A1, “SINGLE-DOMAIN ANTIBODY FOR INHIBITION OF NEUTROPHIL ELASTASE ACTIVITY” (UNIVERSITE DE LIEGE, priority 2023, published 2026)

What was measured:
hNE [1] = molecular target: T1, hNE (Homo sapiens, UniProt P08246); experiment: hNE inhibition, hydrolysis of chromogenic substrate N-Succinyl-Ala-Ala-Ala-paraNitroAnilide; type: biochemical; settings: hNE vs mNE
T1 construct: purchased Elastin Products Company (EPC)
T1 sequence (P08246 30-247): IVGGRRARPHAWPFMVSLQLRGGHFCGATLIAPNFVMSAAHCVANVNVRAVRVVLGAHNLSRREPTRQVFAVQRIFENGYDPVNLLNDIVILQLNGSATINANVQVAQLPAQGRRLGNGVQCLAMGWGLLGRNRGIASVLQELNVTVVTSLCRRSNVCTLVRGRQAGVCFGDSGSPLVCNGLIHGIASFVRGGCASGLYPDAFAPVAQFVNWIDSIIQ
Method: Inhibition of the hydrolysis of a chromogenic substrate. […] Briefly, hNE (Elastin products company, EPC, United States) was resuspended at 1 mg·mL^−1 in 50 mM sodium acetate buffer pH 5 containing 100 mM NaCl and stored at 4° C. The substrate Succinyl-Ala-Ala-Ala-paraNitroAnilide was dissolved at 1 mM in 0.1 M Tris pH 7.5 with NaCl 0.5 M and NaN3 0.01% (% w/v) and stored at 4° C. 230 μl of substrate (1 mM) were mixed with 10 μl of Bovine Serum Albumin 9 μM (BSA, Sigma-Aldrich, Germany) and incubated 20 min at 25° C. in a clear flat bottom 96-well plate (Greiner Bio-One, Belgium). […] The absorbance at 410 nm was measured every min for 60 minutes in a SpectraMax M2e Microplates Reader (Molecular Devices, California, USA). The initial velocity determined in the presence of the ISVD at different Nb: hNE ratios was compared to that measured in the absence of the ISVD, to determine the residual activity. […]
The absorbance at 410 nm was measured every min for 60 minutes. The initial velocity determined in the presence of the inhibitor at different inhibitor: hNE ratios was compared to that measured in the absence of the inhibitor, to determine the residual activity. […] The hNE activity was monitored at 410 nm for 10 minutes using the spectrophotometer Specord 50 Plus (Analytik Jena) and data were collected with the WinAspectPlus software. […]

hNE [2] = molecular target: T1, hNE; experiment: hNE inhibition, hydrolysis of elastin (Elastin-CongoRed); type: biochemical
Method: 1.6.2. Inhibition of the hydrolysis of elastin, a natural substrate of hNE. […] The samples were incubated for 16 hours at 37° C. with orbital shaking (900 rpm). The samples were then centrifuged at 90′000 g for 30 minutes at 4° C. to separate the insoluble Elastin from the digested and soluble molecule fragments. The soluble fraction was transferred into a 384-wells clear plate and the absorbance of Congo-red was measured at 495 nm in a SpectraMax M2e Microplates Reader (Molecular Devices, California, USA). The absorbance of the samples at different inhibitor: hNE molar ratios was compared to that measured in the absence of inhibitor, to determine the residual hNE activity. A sample of Elastin-Congo red without elastase was used as blank.

hNE [3] = molecular target: T1, hNE; experiment: Affinity of NbE201 for hNE by BLI; type: binding
Method: The affinity of NbE201 for hNE and mNE was measured by BLI with the Octet HTX machine using various settings. […] For hNE, the biotinylated NbE201 (0.5 μg·mL^−1) was immobilized on streptavidin biosensors (SA, Sartorius) following the provider's indications. Then, the biosensors were immersed in a solution of hNE at different concentrations (25-6.25-3.125-1.5163-0.753 nM). Association and dissociation kinetics were measured for 180 s and 300 s respectively, in 10×KB buffer. All the experiments were carried out at 30° C. in 96-wells or 384-wells black-bottom microplates in polypropylene (Greiner Bio-One, Belgium) and with orbital agitation (1500 rpm). The sensorgrams obtained were fitted globally to a 1:1 model to derive the rate constants for association (kon) and dissociation (koff) and the equilibrium dissociation constant (KD=koff/kon). […] were carried out. The error on KD was calculated using the following equation: […]

human cathepsin G (hCG) = molecular target: T2, human cathepsin G (hCG) (Homo sapiens, UniProt P08311); experiment: BLI binding to other serine proteases: hCG; settings: 50 nM protease
T2 construct: purchased Calbiochem
T2 sequence (P08311 21-244): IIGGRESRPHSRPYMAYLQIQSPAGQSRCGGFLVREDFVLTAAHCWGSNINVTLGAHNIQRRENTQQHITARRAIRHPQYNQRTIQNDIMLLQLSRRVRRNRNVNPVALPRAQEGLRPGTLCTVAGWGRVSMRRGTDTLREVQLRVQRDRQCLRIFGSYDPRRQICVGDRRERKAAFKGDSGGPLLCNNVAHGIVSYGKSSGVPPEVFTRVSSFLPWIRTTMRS
Method: (§1) The specificity of NbE201 for hNE was also investigated by BLI. Biotinylated NbE201 (10 μg/mL) was immobilized on streptavidin biosensors (SA, Sartorius) following provider's indications. The biosensors were then immersed in a 50 nM solution of a serine protease. The proteases tested were human cathepsin G (hCG), human proteinase 3 (hPR3), mouse pancreatic elastase (mPE), mouse neutrophil elastase (mNE) and porcine pancreatic elastase (pPE). hNE was used a positive control. The association and dissociation were measured for 70 s and 320 s respectively, in kinetic buffer (KB, Sartorius). The experiments were carried out at 30° C. in 384-wells black-bottom microplates in polypropylene (Greiner Bio-One, Belgium) and with orbital agitation (1000 rpm).

[4] = system: mouse pancreatic elastase (mPE); experiment: BLI binding to other serine proteases: mPE; settings: 50 nM protease
Method: as §1

[5] = molecular target: T3, porcine pancreatic elastase (pPE) (Sus scrofa, UniProt P00772); experiment: BLI binding to other serine proteases: pPE; settings: 50 nM protease
T3 construct: purchased Sigma
Method: as §1

hNE [6] = molecular target: T1, hNE; experiment: BLI specificity assay, hNE positive control; type: binding; settings: 50 nM protease
Method: as §1

[7] = system: hNE-induced alveolar-capillary damage; experiment: hNE-induced acute lung injury mouse model; type: in vivo, mice; settings: nasal instillation 15 min prior to hNE 25 μg; molar ratio Nb/HNE 4/1
Method: The in vivo efficacy of NbE201 was determined using a mouse model of acute lung injury induced by nasal instillation of HNE (L agente et al., 2009, American Thoracic Society International Conference Abstracts. (American Thoracic Society), A5668. doi: 10.1164/ajrccm-conference.2009.179.1_MeetingAbstracts.A5668). […]
It was determined with the hemoglobin assay kit (Sigma) and performed according to the manufacturer's instructions. […] A measurement of the optical density at 400 nm allowed the quantification of this stable complex. […]
Histological sections of the lung were digitized using a panoramic scan 2 (3[…]). […] This semi-automated analysis made it possible to quantify the damaged alveolar surface. […] The percentage of injured surface was determined by the ratio: % injured area=(injured area/alveolar area)×100

T3 sequence (P00772 27-266): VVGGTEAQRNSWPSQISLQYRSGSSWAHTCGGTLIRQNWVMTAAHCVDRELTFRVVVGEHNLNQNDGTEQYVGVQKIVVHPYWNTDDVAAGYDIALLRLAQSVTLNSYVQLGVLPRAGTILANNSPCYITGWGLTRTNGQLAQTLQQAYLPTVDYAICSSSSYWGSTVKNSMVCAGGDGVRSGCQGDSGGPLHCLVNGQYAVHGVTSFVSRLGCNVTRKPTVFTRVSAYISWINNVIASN

B1: NbE201: anti-hNE ISVD (VHH/nanobody) from immunized lama, amino acid sequence SEQ ID NO: 4 (protein)
VHH: QVQLQESGGGLVQAGGSLRLSCVVPGRTISLYRMGWFRQAPGKEREFVAGINWSGDMTDYVDSVKGRFTISRDNAKNTVYLEMNSLKPEDTAIYYCTADPKLLPLADSSYGYWGQGTQVTVSS
inhibitory activity to hNE relative to mNE (hNE [1]): about 10 times
hNE residual activity, elastin hydrolysis (hNE [2]; [inhibitor]:[hNE] = 50): almost zero
inhibition of hNE activity, elastin hydrolysis (hNE [2]; [inhibitor]:[hNE] ratio 15): 80%
affinity for hNE relative to mNE (hNE [3]; hNE vs mNE): about 10 times
koff (hNE [3]; hNE, BLI): 3.2 ± 0.2 · 10^−3 s^−1
kon (hNE [3]; hNE, BLI): 2.6 ± 0.9 · 10^6 M^−1 s^−1
binding to hCG by BLI (human cathepsin G (hCG)): does not bind to the other proteases
binding to mPE by BLI [4]: does not bind to the other proteases
binding to pPE by BLI [5]: does not bind to the other proteases
binding to hNE by BLI (positive control) (hNE [6]): association signal
protection against hNE-induced alveolar-capillary damage [7]: protects the lungs from developing alveolar-capillary damage
